Experimental findings from article PMC4705688 are described below.

In series [1] the target is His-Cmr (Mycobacterium tuberculosis H37Rv) (UniProt P9WMH5). The series can be described thus: EMSA. In general terms: In EMSA bound probe runs differently from free probe, usually more slowly.
Series [2] deals with His-Cmr HTH+ del217-244 (Mycobacterium tuberculosis H37Rv) (UniProt P9WMH5). Put plainly: EMSA.
The target of series [3] is His-Cmr HTH- del195-244 (Mycobacterium tuberculosis H37Rv) (UniProt P9WMH5). The series can be described thus: EMSA.
His-Cmr HTH- del195-244 (Mycobacterium tuberculosis H37Rv), sequence (P9WMH5 1-194): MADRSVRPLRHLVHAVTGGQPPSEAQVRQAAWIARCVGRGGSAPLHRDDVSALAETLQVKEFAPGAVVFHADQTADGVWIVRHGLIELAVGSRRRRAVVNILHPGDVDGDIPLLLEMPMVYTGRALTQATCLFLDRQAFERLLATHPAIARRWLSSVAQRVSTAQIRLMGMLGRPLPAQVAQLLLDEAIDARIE
For series [4], the target named is His-Cmr (Mycobacterium tuberculosis H37Rv) (UniProt P9WMH5). Put plainly: DNase I footprinting.

His-Cmr (Mycobacterium tuberculosis H37Rv), sequence (P9WMH5 whole entry): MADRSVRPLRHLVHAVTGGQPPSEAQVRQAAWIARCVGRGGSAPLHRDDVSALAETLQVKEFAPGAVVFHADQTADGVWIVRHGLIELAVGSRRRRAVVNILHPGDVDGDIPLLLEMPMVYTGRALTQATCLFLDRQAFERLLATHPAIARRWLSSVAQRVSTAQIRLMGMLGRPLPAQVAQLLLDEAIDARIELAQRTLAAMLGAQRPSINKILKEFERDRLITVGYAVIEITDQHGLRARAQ
His-Cmr HTH+ del217-244 (Mycobacterium tuberculosis H37Rv), sequence (P9WMH5 1-216): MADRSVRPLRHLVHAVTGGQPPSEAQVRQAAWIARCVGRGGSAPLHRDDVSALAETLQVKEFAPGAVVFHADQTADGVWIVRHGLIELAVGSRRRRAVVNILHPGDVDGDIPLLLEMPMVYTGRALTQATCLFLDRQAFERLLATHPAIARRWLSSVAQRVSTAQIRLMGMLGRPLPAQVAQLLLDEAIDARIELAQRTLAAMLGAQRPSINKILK

On to “TAAAGTCACCGCCGGGGCCGATGTTCGCAGTCGCGGGCTCGGTGCCATCCATATCGTTGCGCAGCGCGATGCCGTGCCAATGCACCGACGTCGGATCACCCAGACGGTTGGTCACCGAGACGACAATCTCATCCCCGACGGTGGCCCGGATCAGTGGTCCGGGGATGGTGTTGCCGTAGGTCAGCGTGCTGACGATCGGCCCACCCAGGTCGATCCTCGCCGGCTGGGGGGTCAGCGTGGCGGTAACCGTTCGCCCACTGTGCGGCCGGGCCGCCTCGGCCGCGTCGATTGCAGCGGT (double strand) [Rv0846c]”, for which the binding result in series [1] is “binds”.

Take “TCTATGGCGGCCAGGGACGCACATTGTGGGCTTCGGGGTAATTGTCTTGGGTTGGCTGCCCCGCGCTGCACAGGGTTACTGGCCCAGGAGGCGGACGTCATCGTGTTAACACCCGTCGGGATAACCTGGGAGCGGCGCAGCCAAGGAAGGAACCAACCGTCCGGTGTCAGACCTAGCCAGAACCGACGTCGTGCTGATC (double strand) [2C5 full]”: the binding entry in series [2] is recorded as “binds”; in series [3], “no binding”; in series [1] it was “binds”.

Regarding “CGGACTGCTGCTGCTCGCCGTTGTCTCCGGTGATTGGGTTGCCCATACCTCCTGGGGCGCAGCGTGGTTCAGCTTGTCACCGGTGACACTGTGTTGGCTTCTCATCAGCTATGGCTTCGCAGCTTCGGTGCTGCCGGTGTGGCTGCTGCTCGCGCCACGCGACTACCTGTCAACGTTCATGAAGG (double strand) [1C1 full]”, the binding result was “binds” in series [2], “no binding” in series [3], “binds” in series [1] and “binds” in series [4].

For “ATCTCAACTATGTGGCCTTGTCCTTAGTCACCGCCGACGGACACACCCTGCTGCACCACCCGTATACCCAGAGCGAGGTGGACATCAAGAAGAACGTGTTCACGATGATGATGCGGCTACCGTGGTTGTATCGCGTTCCCGTACATACGATTCACAAATTTGGCCACATGCTCAGCGGCATGGCGATCCGGATCGTC (double strand) [2G5 full]”, the binding result in series [2] is “binds”; in series [3], “no binding”; in series [1], “binds”.
